The target in the data set is WRKY33 cDBD (Arabidopsis thaliana, UniProt Q8S8P5 345-449). As to the kind of experiment: DPI-ELISA; DPI-ELISA, streptavidin 384-well plate, 1-2 pmol biotinylated dsDNA per well, crude native E. coli extract, anti-His detection; buffer as in Brand et al. [46],; high values mean tight binding. To be noted: tags: C-terminal His (pET-DEST42); label: 5' biotin on forward strand. Background: ELISA stands for enzyme-linked immunosorbent assay.
WRKY33 cDBD, sequence (Q8S8P5 other isoform, or with tags, fused parts or gaps): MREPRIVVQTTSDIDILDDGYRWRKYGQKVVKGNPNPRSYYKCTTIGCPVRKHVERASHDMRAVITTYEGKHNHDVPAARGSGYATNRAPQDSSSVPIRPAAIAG

B1: 36 (dsDNA)
DNA 1: AAAAAATTTGGTCTTCGTCCTCGCTTAAAA
DNA 2: TTTTAAGCGAGGACGAAGACCAAATTTTTT
Regarding B1, the binding signal is 2.17 relative normalized absorbance.

B2: 195 (dsDNA)
DNA 1: AAAAAATGGTCGTCGTACTCGTGGTCAAAA
DNA 2: TTTTGACCACGAGTACGACGACCATTTTTT
Take B2: the binding signal was 2.34 relative normalized absorbance.

B3: 54 (dsDNA)
DNA 1: AAAAAAGTCCGCCCTTAATTCATATTAAAA
DNA 2: TTTTAATATGAATTAAGGGCGGACTTTTTT
Regarding B3, the binding signal is 2.35 relative normalized absorbance.

B4: 57 (dsDNA)
DNA 1: AAAAAAAATTAGTCTCTTCGTCTCCCAAAA
DNA 2: TTTTGGGAGACGAAGAGACTAATTTTTTTT
As to B4, the binding signal was 2.01 relative normalized absorbance.

B5: 43 (dsDNA)
DNA 1: AAAAAAAGGTCATTGCTGCTGGTGTTAAAA
DNA 2: TTTTAACACCAGCAGCAATGACCTTTTTTT
For B5, the binding signal was 2.19 relative normalized absorbance.

B6: 101 (dsDNA)
DNA 1: AAAAAAGTCTAAGGACTTATAGCTGTAAAA
DNA 2: TTTTACAGCTATAAGTCCTTAGACTTTTTT
Consider B6, for which the binding signal was 2.37 relative normalized absorbance.

B7: 173 (dsDNA)
DNA 1: AAAAAATACATTTGACTTTGGGTTTCAAAA
DNA 2: TTTTGAAACCCAAAGTCAAATGTATTTTTT
B7: the binding signal was 2.31 relative normalized absorbance.

B8: 97 (dsDNA)
DNA 1: AAAAAAAGTTTGACCTTGGCGTTCGTAAAA
DNA 2: TTTTACGAACGCCAAGGTCAAACTTTTTTT
On to B8, for which the binding signal is 2.28 relative normalized absorbance.

B9: 271 (dsDNA)
DNA 1: AAAAAACGTTGAACCTGGGCCTCAACAAAA
DNA 2: TTTTGTTGAGGCCCAGGTTCAACGTTTTTT
As to B9, the binding signal was 2.33 relative normalized absorbance.

B10: 83 (dsDNA)
DNA 1: AAAAAATATGTAGCTGCCGTTACGCTAAAA
DNA 2: TTTTAGCGTAACGGCAGCTACATATTTTTT
As to B10, the binding signal was 2.34 relative normalized absorbance.

B11: 137 (dsDNA)
DNA 1: AAAAAAACTCTAGGTCAATATTATTCAAAA
DNA 2: TTTTGAATAATATTGACCTAGAGTTTTTTT
On to B11, for which the binding signal is 2.3 relative normalized absorbance.

B12: 260 (dsDNA)
DNA 1: AAAAAAGTATAACGTGTTGTTGACCGAAAA
DNA 2: TTTTCGGTCAACAACACGTTATACTTTTTT
Take B12: the binding signal was 2.33 relative normalized absorbance.

B13: 222 (dsDNA)
DNA 1: AAAAAAGGCGGTCGTAGTTGTGGGAGAAAA
DNA 2: TTTTCTCCCACAACTACGACCGCCTTTTTT
Consider B13, for which the binding signal was 2.35 relative normalized absorbance.

B14: 88 (dsDNA)
DNA 1: AAAAAATCAACCATTATGGTATTACTAAAA
DNA 2: TTTTAGTAATACCATAATGGTTGATTTTTT
In the case of B14, the binding signal was 2.02 relative normalized absorbance.

B15: 92 (dsDNA)
DNA 1: AAAAAAAGTCTGCGGCTGCAGGGCGGAAAA
DNA 2: TTTTCCGCCCTGCAGCCGCAGACTTTTTTT
For B15, the binding signal was 2.36 relative normalized absorbance.

B16: 91 (dsDNA)
DNA 1: AAAAAAAGTGGCCGCTAGTCAACTCAAAAA
DNA 2: TTTTTGAGTTGACTAGCGGCCACTTTTTTT
For the molecule B16, the binding signal is 2.25 relative normalized absorbance.

B17: 117 (dsDNA)
DNA 1: AAAAAAATCAGCCTGACTCTGGGCGTAAAA
DNA 2: TTTTACGCCCAGAGTCAGGCTGATTTTTTT
Regarding B17, the binding signal was 2.01 relative normalized absorbance.
